# Assay results taken from IntAct's records for PubMed 9830048.
# B1: Synaptotagmin-1 (Rattus norvegicus (Rat)), P21707 (parent)
# chain: MVSASHPEALAAPVTTVATLVPHNATEPASPGEGKEDAFSKLKQKFMNELHKIPLPPWALIAIAIVAVLLVVTCCFCVCKKCLFKKKNKKKGKEKGGKNAINMKDVKDLGKTMKDQALKDDDAETGLTDGEEKEEPKEEEKLGKLQYSLDYDFQNNQLLVGIIQAAELPALDMGGTSDPYVKVFLLPDKKKKFETKVHRKTLNPVFNEQFTFKVPYSELGGKTLVMAVYDFDRFSKHDIIGEFKVPMNTVDFGHVTEEWRDLQSAEKEEQEKLGDICFSLRYVPTAGKLTVVILEAKNLKKMDVGGLSDPYVKIHLMQNGKRLKKKKTTIKKNTLNPYYNESFSFEVPFEQIQKVQVVVTVLDYDKIGKNDAIGKVFVGYNSTGAELRHWSDMLANPRRPIAQWHTLQVEEEVDAMLAVKK
# Variants of: B1
# Details: with cac1b_rat Cacna1b
row,effect of a mutation on the interaction,Variant
1,decreasing interaction,MVSASHPEALAAPVTTVATLVPHNATEPASPGEGKEDAFSKLKQKFMNELHKIPLPPWALIAIAIVAVLLVVTCCFCVCKKCLFKKKNKKKGKEKGGKNAINMKDVKDLGKTMKDQALKDDDAETGLTDGEEKEEPKEEEKLGKLQYSLDYDFQNNQLLVGIIQAAELPALDMGGTSDPYVKVFLLPDKKKKFETKVHRKTLNPVFNEQFTFKVPYSELGGKTLVMAVYDFDRFSKHDIIGEFKVPMNTVDFGHVTEEWRDLQSAEKEEQEKLGDICFSLRYVPTAGKLTVVILEAKNLKKMDVGGLSDPYVKIHLMQNGKRLKKAATTIKKNTLNPYYNESFSFEVPFEQIQKVQVVVTVLDYDKIGKNDAIGKVFVGYNSTGAELRHWSDMLANPRRPIAQWHTLQVEEEVDAMLAVKK [K326A;K327A]

# Variants of: B1
# Details: with ap2a2_rat Ap2a2, P18484
# Chain of ap2a2_rat Ap2a2, P18484 (P18484 whole entry): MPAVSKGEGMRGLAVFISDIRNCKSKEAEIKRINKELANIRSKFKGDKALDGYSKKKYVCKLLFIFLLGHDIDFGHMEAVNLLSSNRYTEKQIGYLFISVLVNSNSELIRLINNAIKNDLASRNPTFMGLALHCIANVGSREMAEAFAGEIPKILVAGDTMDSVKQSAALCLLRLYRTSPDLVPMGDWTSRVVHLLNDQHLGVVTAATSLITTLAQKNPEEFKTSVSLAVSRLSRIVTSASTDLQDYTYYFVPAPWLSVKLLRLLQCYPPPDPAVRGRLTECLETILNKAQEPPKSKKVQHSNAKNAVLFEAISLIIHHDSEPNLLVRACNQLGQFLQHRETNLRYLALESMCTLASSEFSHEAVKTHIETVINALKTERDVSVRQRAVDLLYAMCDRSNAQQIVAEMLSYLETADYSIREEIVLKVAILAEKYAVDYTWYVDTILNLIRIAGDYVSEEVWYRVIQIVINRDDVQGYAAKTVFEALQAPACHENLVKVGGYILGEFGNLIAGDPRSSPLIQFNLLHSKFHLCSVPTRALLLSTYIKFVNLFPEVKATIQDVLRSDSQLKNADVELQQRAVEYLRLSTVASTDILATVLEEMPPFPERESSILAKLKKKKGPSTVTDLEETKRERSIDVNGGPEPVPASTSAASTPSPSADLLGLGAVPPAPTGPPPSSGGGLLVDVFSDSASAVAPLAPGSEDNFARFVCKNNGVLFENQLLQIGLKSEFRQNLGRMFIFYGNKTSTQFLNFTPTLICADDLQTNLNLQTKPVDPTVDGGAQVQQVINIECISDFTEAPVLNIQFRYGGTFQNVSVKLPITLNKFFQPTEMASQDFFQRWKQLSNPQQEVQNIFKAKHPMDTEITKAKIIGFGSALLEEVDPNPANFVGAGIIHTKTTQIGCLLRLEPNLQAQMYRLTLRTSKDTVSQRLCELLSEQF
row,effect of a mutation on the interaction,Variant
1,decreasing interaction,MVSASHPEALAAPVTTVATLVPHNATEPASPGEGKEDAFSKLKQKFMNELHKIPLPPWALIAIAIVAVLLVVTCCFCVCKKCLFKKKNKKKGKEKGGKNAINMKDVKDLGKTMKDQALKDDDAETGLTDGEEKEEPKEEEKLGKLQYSLDYDFQNNQLLVGIIQAAELPALDMGGTSDPYVKVFLLPDKKKKFETKVHRKTLNPVFNEQFTFKVPYSELGGKTLVMAVYDFDRFSKHDIIGEFKVPMNTVDFGHVTEEWRDLQSAEKEEQEKLGDICFSLRYVPTAGKLTVVILEAKNLKKMDVGGLSDPYVKIHLMQNGKRLKKAATTIKKNTLNPYYNESFSFEVPFEQIQKVQVVVTVLDYDKIGKNDAIGKVFVGYNSTGAELRHWSDMLANPRRPIAQWHTLQVEEEVDAMLAVKK [K326A;K327A]
